Results reported in publication PMC12239786, “SARS-CoV-2 RNA-binding protein suppresses extracellular miRNA release”.

Tests used:
His-Nsp9 = His-Nsp9 (SARS-CoV-2, UniProt P0DTD1 4141-4253); assay: fluorescence polarization; 100 nM RNA; FP: 20 mM HEPES pH 7.0, 150 mM NaCl, 2 mM MgCl2, 10 mM DTT, 1 U/ul RiboLock, 5 min at room temperature; NMR: 20 mM HEPES pH 7.0, 15 mM NaCl, 0.5 mM TCEP, 0.02%; settings: protein: recombinant; tags: His; chain copies: 2; label: 3' Cy3
[1] = target: AUF1 (RNA-binding domain on protein array) (human, UniProt Q14103 97-261); assay: protein microarray; FP: 20 mM HEPES pH 7.0, 150 mM NaCl, 2 mM MgCl2, 10 mM DTT, 1 U/ul RiboLock, 5 min at room temperature; NMR: 20 mM HEPES pH 7.0, 15 mM NaCl, 0.5 mM TCEP, 0.02%; settings: protein: recombinant; label: 5' biotin
Sequence of AUF1 (RNA-binding domain on protein array) (Q14103 97-261): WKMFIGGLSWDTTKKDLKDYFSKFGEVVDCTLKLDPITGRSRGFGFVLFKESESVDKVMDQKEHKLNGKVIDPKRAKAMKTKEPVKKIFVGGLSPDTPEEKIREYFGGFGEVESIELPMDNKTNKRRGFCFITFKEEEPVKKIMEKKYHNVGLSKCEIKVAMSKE

[2] = target: NCL (RNA-binding domain on protein array) (human, UniProt P19338 307-647); assay: as above; settings: protein: recombinant; label: 5' biotin
Sequence of NCL (RNA-binding domain on protein array) (P19338 307-647): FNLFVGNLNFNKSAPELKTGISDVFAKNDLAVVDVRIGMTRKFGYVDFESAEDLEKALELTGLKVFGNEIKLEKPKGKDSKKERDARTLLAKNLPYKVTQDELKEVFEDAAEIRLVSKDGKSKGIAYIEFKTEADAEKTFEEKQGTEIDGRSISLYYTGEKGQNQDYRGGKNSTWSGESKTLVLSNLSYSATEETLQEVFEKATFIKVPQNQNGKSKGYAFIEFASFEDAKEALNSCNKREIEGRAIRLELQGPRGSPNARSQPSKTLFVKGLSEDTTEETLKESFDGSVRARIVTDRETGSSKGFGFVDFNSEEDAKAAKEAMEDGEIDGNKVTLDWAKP

Row | Binder | Kd (His-Nsp9) | binding result (His-Nsp9) | further results
1 | CAGUGCAAUGAUGAAAGGGCAU (ssRNA, 5' phosphate) [miR-130b-Cy3] | ~63 nM | – | –
2 | UAGCUUAUCAGACUGAUGUUGA (ssRNA, 5' phosphate) [miR-21-Cy3] | – | no binding | –
3 | UGAGGUAGUAGGUUGUGUGGUU (ssRNA, 5' phosphate) [let-7b-Cy3] | ~15 nM | – | –
4 | UGAGGUAGUAGGUUGCCAUUAU (ssRNA, 5' phosphate) [mutant let-7b-Cy3] | – | no binding | –
5 | UGAGGUAGUAGGUUGUGUGGUU (ssRNA) [let-7b-biotin] | – | – | binding result [1]: binds; binding result [2]: binds
